Series [1] deals with TNO211 peptide (DABCYL-GABA-Pro-Gln-Gly-Leu-Glu(EDANS)-Ala-Lys-NH2).
Series [2] concerns Anaspec, Inc.'s FRET peptide XV (QXL520-y-Abu-Pro-Gln-Gly-Leu-Dab(5-FAM)-Ala-Lys-NH).
Series [3] deals with T1, Peptide #15 (Biotin-aAbu-Pro-Gln-Gly-Leu-Lys(5FAM)-Ala-Lys-NH2).
T1 sequence: PQGLKAK

MMP-9, sequence (chain, as listed by the source): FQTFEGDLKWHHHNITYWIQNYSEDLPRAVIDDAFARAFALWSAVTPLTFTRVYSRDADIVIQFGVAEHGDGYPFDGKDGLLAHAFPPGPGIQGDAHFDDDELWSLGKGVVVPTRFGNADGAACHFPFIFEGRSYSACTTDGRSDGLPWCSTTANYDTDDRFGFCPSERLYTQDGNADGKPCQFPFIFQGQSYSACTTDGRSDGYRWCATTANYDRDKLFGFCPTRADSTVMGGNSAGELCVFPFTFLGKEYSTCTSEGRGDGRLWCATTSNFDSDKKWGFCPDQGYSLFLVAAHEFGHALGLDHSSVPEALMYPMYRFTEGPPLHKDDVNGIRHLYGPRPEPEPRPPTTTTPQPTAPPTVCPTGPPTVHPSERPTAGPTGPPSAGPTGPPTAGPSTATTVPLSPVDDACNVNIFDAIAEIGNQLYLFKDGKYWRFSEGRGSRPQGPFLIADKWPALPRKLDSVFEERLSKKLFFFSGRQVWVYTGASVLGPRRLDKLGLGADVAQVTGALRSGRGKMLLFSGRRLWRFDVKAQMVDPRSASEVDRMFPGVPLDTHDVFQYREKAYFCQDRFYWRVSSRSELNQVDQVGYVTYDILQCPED
Recombinant active pure MMP-9 from Calbiochem (Cat# PF024; 83 kDa form), sequence (chain, as listed by the source): as above

Regarding MMP-9, in series [1], the “protease activity (fluorescence from cleavage of substrate TNO211), relative to pronase” value turned out to be 28±3% and the “substrate specificity in the fluorogenic cleavage assay” value was “The substrate exhibited greater specificity for MMP-9 within the initial 30 minutes of the assay”.
Consider “Recombinant active pure MMP-9 from Calbiochem (Cat# PF024; 83 kDa form)”, for which, in series [2], the “time to a visible fluorescent signal from cleavage of the FRET peptide” value is listed as “capable of generating a signal within 10 minutes for pure MMP-9 activity”; the “visually detectable fluorescent signal in MMP-9 spiked fetal bovine serum” value was “the spiked FBS generated as slightly detectable signal by 10 min with the 5-FAM-based peptide and an easily detectable signal by 30 min”.
Take clostridial collagenase: the “protease activity (fluorescence from cleavage of substrate TNO211), relative to pronase” value in series [1] was 2±1%.
Regarding dispase, the “cleavage of the dye-labelled immobilized substrate (color generation)” value (“cleavage … (color generation)” below) with RH substrate is on record as “none of the enzyme preparations were successful in cleaving the RH substrate”.
The same measure, in the same setting: as for elastase, the entry is “none of the enzyme preparations were successful in cleaving the RH substrate”.
As for pronase, the “fluorescence left after streptavidin agarose removal of uncleaved biotinylated peptide” value in series [3] was “there was enough of a difference between the negative control and the other samples to stop at this point”. In the series on RH substrate, the “cleavage … (color generation)” value is reported as “none of the enzyme preparations were successful in cleaving the RH substrate”. Further, the “visible color from cleavage of the dye-labelled immobilized substrate” value in the series on Substrate AA was “AA substrate reacted with pronase and proteinase K did produce a visible color within 2.5 h at 37 °C Pronase generated the most noticeable color change”. Besides, in series [1], the “time to completion of the cleavage reaction at 1 ug/ml protease” value is given as “the pronase reaction reached completion within 13 minutes” and the “visual detection limit of protease by fluorescence of cleaved substrate” value is 125 ng pronase was detected within 10 minutes.
Consider trypsin, for which the “cleavage … (color generation)” value in the series on RH substrate is recorded as “none of the enzyme preparations were successful in cleaving the RH substrate”.

The values are drawn from patent publication US20080176263.
